Source: the supplement of paper PMC9170038

Tested on: K4 kissing-loop RNA reporter
Experiment: apparent KD of K4 kissing-loop reporter; higher = weaker reporter binding
Details: Eterna round: R107
Protocol: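 RNA-MaP round R107: designed RNA switches with theophylline, tryptophan, arginine or FMN aptamers are transcribed on-chip within common flanks. They are titrated with a labelled K4 kissing-loop RNA reporter in RNA-MaP buffer (100 mM Tris pH 7.5, 80 mM KCl, 4 mM MgCl2), without ligand or with the indicated ligand. Median apparent KD per design.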

[1] = input ligand: theophylline 20 uM
[2] = input ligand: tryptophan 2.4 mM
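Further: bound reporter read as fluorescence of individual clusters on recovered sequencing chips by microscopy, with normalized cluster intensities fitted with a binding model.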

Row | Sequence | apparent KD of K4 kissing-loop reporter (input ligand: FMN 200 uM) [µM] | apparent KD of K4 kissing-loop reporter (input ligand: arginine 13.2 mM) [µM] | apparent KD of K4 kissing-loop reporter (input ligand: none) [µM] | apparent KD of K4 kissing-loop reporter [1] [µM] | apparent KD of K4 kissing-loop reporter [2] [µM]
1 | CCUAUCUCGUACGAUACCAGACUAUGAUCUUUGAUCAAUGCCAUCACCGAGUGAUGUUCGGUCCCUUGGCAGCGUAUGAGAUGGG [#12 K4 Theophylline B Exclusion] | 0.179 | 0.143 | 0.17 | 0.202 | 0.155
2 | GCCGUACGCAUGGAUACCAGUCAAGAUCAGUGAUGUUGAUCUUUUAUAGAGCCUACAUUUGACCCUUGGCAGCCAUGCGUACGGC | 0.378 | 0.32 | 0.33 | 0.465 | 0.247
3 | UUUCUACCGGGAAGGAGCGUGAAUGAUAAUGGAUAUAGUGAUGUUAUAUAUACGAACGAAUCGCAGGUAGGUCGCCCGGAUGACU [SSArgB.T] | 0.586 | 0.503 | 0.724 | 0.55 | 0.486
4 | AUUUUUUUGUCAGGAUAUUAGUAUGGUUUUGGUUUGUUAGUGAUGUUGAUAUUUUGUUUAUGUAUUUAAGAAGGGAUUUAGCGGU [gyhhgumullin] | 0.404 | 0.29 | 0.356 | 0.447 | 0.32
5 | ACAGAUUGAUUGAUUCACUUUGUAGCUGCGAAGGAUAUUAAGACGCUAAGAAGGUCGCUUAAGGGUAGUGAUGUUACCUUUUGAG [theeternabot_sameState_KL_FMN_A_27] | 0.0573 | 0.055 | 0.0578 | 0.0566 | 0.0514
6 | GCCGUAGAUUGAAGGAGCGCUAGUAGUGAUGUUGCUUGCACUUCUUGUGUAAGAAGAACCUAGCAGGUAGGUCGCAAUCUACGGC | 0.7 | 0.27 | 0.728 | 0.703 | 0.499
7 | AAGCGUGUGGCGGCCGCCACUAGUCUCCAGUGAUGUUGGAGAUAUCACGUAAGUGAUAUCCGACAUAGGACCGGGCCAUAUGGAA [Same State - Tryptophan B (Freestyle 22)] | 0.587 | 0.299 | 0.813 | 0.612 | 0.207
8 | GGUGACAGCCAGGAGUGAUGUAUAGAAUAGCGAGGACCGGUACGGCCGCCACUCGUGAAGAGAAAGGAGUGAUGUUCCGUAAUGG [Kazoo C2] | 0.224 | 0.178 | 0.193 | 0.308 | 0.057
9 | UGCGCUGUGUACUGUAAUGUUAUGCGGGAUACCAGAGUCUUUUUAUUCCCUUGGCAGCUUGAGUGAUGUUUGAUGCCGUUCUUGU [plpkmullin] | 0.481 | 0.327 | 0.504 | 0.452 | 0.401
10 | UGUAUGGACUGAAGGAGCGGUAGAUAAACUGAGUGAUGUUCGGCAAAUAAAGGCGCAAGCCACCAGGUAGGUCGCAGUCCAUACU [KL-SSArg B1] | 0.289 | 0.182 | 0.235 | 0.236 | 0.205
11 | UGAUAGGACAGAAGGAGCGGUAGUGAUGUUACCAAAAGGCUAAGGUGUCAAAAGACACCCUACCAGGUAGGUCGCUGUCCUAUCU | 0.131 | 0.131 | 0.137 | 0.121 | 0.103
12 | AGCCUUACAUCGGCCGCCACUUCCCUGGCAGUGAUGUUGCCGUAGACAAUCAUUCUACCCUGGAGAAGGACCGGGAUGCAGAAAC [theeternabot_sameState_KL_Trp_B_8] | 0.154 | 0.185 | 0.167 | 0.223 | 0.329
13 | AUUAAUUUCAGAGGAUAUCGUAAUUUUAUUUAAUUUAUUCAUUUGUGCAGUGAUGUUGCUAAUAUUCGAGAAGGCUGAUUUAUAA [whbob_Ex_FMNB__2th223] | 0.142 | 0.159 | 0.0708 | 0.171 | 0.065
14 | CGCAGUGAUGUUGCGAAUAUAAUUACGGAAGGAGCGCGUGAAAACGCAGGUAGGUCGCCGUUUGGUAUGAUGGAAACAUCGUACC [Arginine A K4 10] | 0.14 | 0.125 | 0.147 | 0.115 | 0.117
15 | GGAUAGGAGAGAGGAUAUGGGCUAGGCAAGAAUAACUUGUCUAGCAAAUCCAUGAGGAGUGAUGUUCCAGAAGGCUCUCCUAUCG [FmnBX 1 G9+C77] | 0.996 | 0.148 | 0.153 | 0.143 | 0.139
16 | AUUUUGGUUUAGAGUGAUGUUCCUUGUAUUCGAGGACCGGUACGGCCGCCACUCGGAUAGAAAAGAAAAGAAAUGUUUGAUUUUU [BDazzled - #8 SS Tryptophan A] | 0.339 | 0.219 | 0.458 | 0.26 | 0.298
17 | AAGUGAUGUUGUAGUGAUGUUGUGAUGUUGCAGGAUAUAUAGUGAUGUAGAAGGGUAUGUACUUAUUUUUUAUUUGAGUUAUGUU [mmvmmullin] | 0.0721 | 0.0298 | 0.0561 | 0.0439 | 0.0572
18 | AAUUUAUAUUUAUUCUUUAAUUGUUCAGAAGGAGCGUGAAUUAUCACAGGUAGGUCGCUGAGCUAGUGAUGUUAGCUAUAUACUA [JR_ExcArginiA_Sub008] | 0.0655 | 0.105 | 0.0628 | 0.0828 | 0.0584
